Consider 35 molecules from patent US20220041718A1 (AUTOLUS, published 2022).

B1: hJovi-1 variant IgG, VH N103S, T28K, Y32F, A100N; VL N35M (antibody, V domains shown)
VH: QVQLVQSGAEVKKPGASVKVSCKASGYKFTGFVMHWVRQAPGQGLEWMGFINPYNDDIQSNERFRGRVTMTRDTSISTAYMELSRLRSDDTAVYYCARGNGYSFDGAYRFFDFWGQGTMVTVSS
VL: DIVMTQSPLSLPVTPGEPASISCRSSQRLVHSNGMTYLHWYLQKPGQSPRLLIYRVSNRFPGVPDRFSGSGSGTDFTLKISRVEAEDVGVYYCSQSTHVPYTFGQGTKLEIK
notes: IgG format
B2: hJovi-1 variant IgG, VH T28K, Y32F, A100N, N103A; VL unmutated (antibody, V domains shown)
VH: B1 VH with S103A
VL: B1 VL with M35N
notes: IgG format
B3: hJovi-1 variant IgG, VH N103W, T28K, Y32F, A100N; VL N35K (antibody, V domains shown)
VH: B1 VH with S103W
VL: B1 VL with M35K
notes: IgG format
B4: hJovi-1 variant IgG, VH T28K, Y32F, A100N, Y102L, N103M; VL N35R (antibody, V domains shown)
VH: B1 VH with Y102L, S103M
VL: B1 VL with M35R
notes: IgG format
B5: hJovi-1 variant IgG, VH T28K, Y32F, A100N, Y102F; VL N35R (antibody, V domains shown)
VH: B1 VH with Y102F, S103N
VL: B1 VL with M35R
notes: IgG format
B6: hJovi-1 variant IgG, VH T28K, Y32F, A100N, N103F; VL N35K (antibody, V domains shown)
VH: B1 VH with S103F
VL: B1 VL with M35K
notes: IgG format
B7: hJovi-1 variant IgG, VH T28K, Y32F, A100N, N103M; VL N35M (antibody, V domains shown)
VH: B1 VH with S103M
VL: B1 VL
notes: IgG format
B8: hJovi-1 variant IgG, VH T28K, Y32F, A100N, N103L; VL unmutated (antibody, V domains shown)
VH: B1 VH with S103L
VL: B1 VL with M35N
notes: IgG format
B9: hJovi-1 variant IgG, VH T28K, Y32F, A100N, Y102L, N103W; VL N35R (antibody, V domains shown)
VH: B1 VH with Y102L, S103W
VL: B1 VL with M35R
notes: IgG format
B10: hJovi-1 variant IgG, VH T28K, Y32F, A100N, N103M; VL unmutated (antibody, V domains shown)
VH: B1 VH with S103M
VL: B1 VL with M35N
notes: IgG format
B11: hJovi-1 variant IgG, VH T28K, Y32F, A100N, N103H; VL unmutated (antibody, V domains shown)
VH: B1 VH with S103H
VL: B1 VL with M35N
notes: IgG format
B12: hJovi-1 variant IgG, VH T28K, Y32F, A100N, N103W; VL unmutated (antibody, V domains shown)
VH: B1 VH with S103W
VL: B1 VL with M35N
notes: IgG format
B13: hJovi-1 variant IgG, VH T28K, Y32F, A100N; VL N35K (antibody, V domains shown)
VH: B1 VH with S103N
VL: B1 VL with M35K
notes: IgG format
B14: hJovi-1 variant IgG, VH T28K, G31R, Y32F, A100N; VL unmutated (antibody, V domains shown)
VH: B1 VH with G31R, S103N
VL: B1 VL with M35N
notes: IgG format
B15: hJovi-1 variant IgG, VH N103W, T28K, Y32F, A100N; VL N35M (antibody, V domains shown)
VH: B1 VH with S103W
VL: B1 VL
notes: IgG format
B16: hJovi-1 variant IgG, VH T28K, Y32F, A100N, Y102F, N103M; VL N35R (antibody, V domains shown)
VH: B1 VH with Y102F, S103M
VL: B1 VL with M35R
notes: IgG format
B17: hJovi-1 variant IgG, VH T28K, Y32F, A100N, N103M; VL N35R (antibody, V domains shown)
VH: B1 VH with S103M
VL: B1 VL with M35R
notes: IgG format
B18: hJovi-1 variant IgG, VH N103S, T28K, Y32F, A100N; VL N35R (antibody, V domains shown)
VH: B1 VH
VL: B1 VL with M35R
notes: IgG format
B19: hJovi-1 variant IgG, VH N103W, T28K, Y32F, A100N; VL N35F (antibody, V domains shown)
VH: B1 VH with S103W
VL: B1 VL with M35F
notes: IgG format
B20: hJovi-1 variant IgG, VH T28K, Y32F, A100N, Y102F; VL unmutated (antibody, V domains shown)
VH: B1 VH with Y102F, S103N
VL: B1 VL with M35N
notes: IgG format
B21: hJovi-1 variant IgG, VH T28K, Y32F, A100N, N103Q; VL unmutated (antibody, V domains shown)
VH: B1 VH with S103Q
VL: B1 VL with M35N
notes: IgG format
B22: hJovi-1 variant IgG, VH T28K, Y32F, A100N, Y102F, N103M; VL N35K (antibody, V domains shown)
VH: B1 VH with Y102F, S103M
VL: B1 VL with M35K
notes: IgG format
B23: hJovi-1 variant IgG, VH N103W, T28K, Y32F, A100N; VL N35R (antibody, V domains shown)
VH: B1 VH with S103W
VL: B1 VL with M35R
notes: IgG format
B24: hJovi-1 variant IgG, VH N103S, T28K, Y32F, A100N; VL N35Y (antibody, V domains shown)
VH: B1 VH
VL: B1 VL with M35Y
notes: IgG format
B25: hJovi-1 variant IgG, VH T28K, Y32F, A100N, N103M; VL N35Y (antibody, V domains shown)
VH: B1 VH with S103M
VL: B1 VL with M35Y
notes: IgG format
B26: hJovi-1 variant IgG, VH T28K, Y32F, A100N, N103S; VL unmutated (antibody, V domains shown)
VH: B1 VH
VL: B1 VL with M35N
notes: IgG format
B27: hJovi-1 variant IgG, VH T28K Y32F A100N; VL R55K (antibody, V domains shown)
VH: B1 VH with S103N
VL: B1 VL with M35N, R55K
notes: IgG format
B28: hJovi-1 variant IgG, VH T28K, Y32F, A100N, Y102F, N103M; VL N35F (antibody, V domains shown)
VH: B1 VH with Y102F, S103M
VL: B1 VL with M35F
notes: IgG format
B29: hJovi-1 variant IgG, VH T28K, Y32F, A100N; VL N35F (antibody, V domains shown)
VH: B1 VH with S103N
VL: B1 VL with M35F
notes: IgG format
B30: hJovi-1 variant IgG, VH T28K, Y32F, A100N, N103E; VL unmutated (antibody, V domains shown)
VH: B1 VH with S103E
VL: B1 VL with M35N
notes: IgG format
B31: hJovi-1 variant IgG, VH T28K, Y32F, A100N, N103Y; VL unmutated (antibody, V domains shown)
VH: B1 VH with S103Y
VL: B1 VL with M35N
notes: IgG format
B32: hJovi-1 variant IgG, VH T28K, Y32F, A100N, N103F; VL unmutated (antibody, V domains shown)
VH: B1 VH with S103F
VL: B1 VL with M35N
notes: IgG format
B33: hJovi-1 variant IgG, VH T28K, Y32F, A100N, Y102L, N103W; VL N35K (antibody, V domains shown)
VH: B1 VH with Y102L, S103W
VL: B1 VL with M35K
notes: IgG format
B34: hJovi-1 variant IgG, VH T28K, Y32F, A100N; VL N35R (antibody, V domains shown)
VH: B1 VH with S103N
VL: B1 VL with M35R
notes: IgG format
B35: hJovi-1 variant IgG, VH T28K, Y32F, A100N, A107S; VL unmutated (antibody, V domains shown)
VH: B1 VH with S103N, A107S
VL: B1 VL with M35N
notes: IgG format

Where a chain is given by its changes, count along the chain named. Names may count otherwise.

T1 sequence (A0A5B9 1-129 limits assumed): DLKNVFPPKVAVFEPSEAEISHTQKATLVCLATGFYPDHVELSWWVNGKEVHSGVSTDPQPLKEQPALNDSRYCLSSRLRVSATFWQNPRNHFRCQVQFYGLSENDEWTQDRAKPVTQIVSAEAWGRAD

The first assay concerns the target T1, Recombinant purified TRBC2 (human, UniProt A0A5B9 1-129, limits assumed).
T1 construct: Construct not described (may be a soluble TCR carrying TRBC2); also called TCR beta constant region 2; soluble recombinant biotinylated TRBC2
Nature of the assay: SPR, IgG captured on anti-human Fc, TRBC2 as analyte. An excerpt:
(§1) A series S CM5 sensor chip was immobilised via amine coupling, with an anti-human Fc capture antibody to a density of 9000-10000 RU, using a Biacore T200 instrument. HBS-P+ buffer was used as running buffer in all experimental conditions. The test anti-TRBC2 antibodies (Table 1) were captured on flow cells 2, 3 and 4 to a density of 100-300 RU. Recombinant purified TRBC1 or TRBC2 at known concentrations were used as the ‘analyte’ and injected over the respective flow cells with 150s contact time and 300s dissociation at 30 μl/minute of flow rate. In each experiment, flow cell 1 was unmodified and used for reference subtraction. A ‘0 concentration’ sensorgram of buffer alone was used as a double reference subtraction to factor for drift. Data were fit to a 1:1 Langmuir binding model. Since a capture system was used, a local Rₘₐₓ parameter was used for the data fitting in each case.
Take B1: the dissociation constant Kd is 1.83 µM.

For the molecule B2, the Kd stood at 0.714 µM.

In the case of B3, the Kd worked out at 0.417 µM.

Take B4: the Kd was determined as 1.9 µM.

As to B5, the Kd stood at 2.7 µM.

As to B6, the Kd worked out at 0.294 µM.

Turning to B7, the dissociation constant (Kd) was 0.131 µM.

On to B8, for which the Kd was 0.302 µM.

With B9, the Kd is 1.51 µM.

B10: the dissociation constant Kd is 0.0836 µM.

As for B11, the dissociation constant (Kd) is 0.416 µM.

In the case of B12, the Kd worked out at 0.425 µM.

In the case of B13, the Kd turned out to be 0.192 µM.

As for B14, the Kd stood at 4.95 µM.

Take B15: the dissociation constant (Kd) worked out at 0.611 µM.

As to B16, the Kd is 0.968 µM.

On to B17, for which the Kd came out at 0.0903 µM.

Consider B18, for which the Kd was 0.917 µM.

For B19, the Kd came to 0.51 µM.

Regarding B20, the dissociation constant (Kd) was 2.61 µM.

With B21, the Kd came to 0.484 µM.

Regarding B22, the Kd came to 0.909 µM.

In the case of B23, the Kd stood at 0.39 µM.

With B24, the Kd was 1.88 µM.

Take B25: the Kd amounted to 0.173 µM.

On to B26, for which the Kd was 0.983 µM.

Regarding B27, the Kd came to 0.165 µM.

In the case of B28, the Kd is 1.32 µM.

In the case of B29, the Kd came out at 0.646 µM.

For B30, the Kd amounted to 1.3 µM.

Turning to B31, the Kd amounted to 0.339 µM.

Regarding B32, the Kd worked out at 0.27 µM.

For the molecule B33, the Kd came to 1.72 µM.

For B34, the Kd is 0.202 µM.

As to B35, the Kd was 1.16 µM.

The next assay deals with T2, Recombinant purified TRBC1 (human, UniProt P01850 1-129, limits assumed).
T2 construct: Construct not described (may be a soluble TCR carrying TRBC1); also called TCR beta constant region 1; soluble recombinant biotinylated TRBC1
T2 sequence (P01850 1-129 limits assumed): as the sequence (A0A5B9 1-129 limits assumed) above, with K3N, N4K, K9E, Y36F counted along it
Nature of the assay: SPR, IgG captured on anti-human Fc, TRBC1 as analyte.
Description: as §1
B1: the Kd amounted to 8.22 µM.

As for B2, the Kd is 3.39 µM.

In the case of B3, the dissociation constant (Kd) turned out to be 1.68 µM.

Take B4: the binding result is given as “no binding”.

With B5, the Kd was determined as 18.9 µM.

B6: the Kd was 0.881 µM.

Consider B7, for which the Kd is 0.648 µM.

In the case of B8, the Kd came to 1.28 µM.

As to B9, the binding result is given as “no binding”.

Regarding B10, the Kd was found to be 0.376 µM.

Regarding B11, the Kd came out at 2.02 µM.

As for B12, the Kd stood at 1.65 µM.

As for B13, the Kd came to 1 µM.

As to B14, the Kd is 17.4 µM.

Turning to B15, the dissociation constant Kd came out at 2.28 µM.

Take B16: the Kd is 7.91 µM.

As to B17, the dissociation constant (Kd) came out at 0.29 µM.

For the molecule B18, the dissociation constant (Kd) was determined as 3.93 µM.

For the molecule B19, the Kd is 1.68 µM.

B20: the binding result was “no binding”.

As for B21, the Kd was 1.77 µM.

Regarding B22, the Kd turned out to be 9.31 µM.

As to B23, the Kd turned out to be 1.73 µM.

With B24, the Kd worked out at 7.83 µM.

Consider B25, for which the Kd came out at 0.733 µM.

Take B26: the Kd is 3.54 µM.

As to B27, the Kd was determined as 0.962 µM.

Consider B28, for which the Kd turned out to be 11.3 µM.

In the case of B29, the Kd was 2.81 µM.

Turning to B30, the Kd was 2.93 µM.

As to B31, the dissociation constant Kd amounted to 1.58 µM.

B32: the Kd was determined as 1.06 µM.

Take B33: the binding result is given as “no binding”.

For B34, the Kd was determined as 0.929 µM.

On to B35, for which the Kd came to 3.59 µM.
